Results from patent publication US20240026407A1, “MODIFICATION OF SAPONINS” (GLAXOSMITHKLINE BIOLOGICALS SA, priority 2020, published 2024).

Assays:
Type in all cases: biochemical, Quillaja saponaria
[1] = Experiment 6-1: screening of rhamnosidases for derhamnosylation of saponins in treated bark extract (2%), QS-17 2296 to QS-18 2150 (PAR %); details: TBE 2%, pH 7.5, 30 degC, 18 h; TIC peak area ratio percent of rhamnosylated starting saponin to derhamnosylated product, LCMS/MS; negative controls 4.876, 5.225
[2] = Experiment 6-1: screening of rhamnosidases for derhamnosylation of saponins in treated bark extract (2%), desglucosyl-QS-17 2134 to QS-21 1988 (PAR %); details: TBE 2%, pH 7.5, 30 degC, 18 h; TIC peak area ratio percent, LCMS/MS; negative controls 2.719, 2.158
[3] = Experiment 6-1: screening of rhamnosidases for derhamnosylation of saponins in treated bark extract (2%), QS-17 2310 to QS-18 2164 (PAR %); details: TBE 2%, pH 7.5, 30 degC, 18 h; TIC peak area ratio percent, LCMS/MS; negative controls 3.061, 2.429
[4] = Experiment 6-1: specificity of rhamnosidases towards other rhamnose residues (C3 saccharide rhamnose, C28 saccharide rhamnose); details: TBE 2%, pH 7.5, 30 degC, 18 h; LCMS/MS; negative controls 0.18, 0.17

Molecule	QS-17 (PAR %) [1] [%]	Peak75 (PAR %) [2] [%]	Peak57 (PAR %) [3] [%]	ratio PP/QS-21 [4]
1046 (protein, Catenovulum agarivorans) MQYWQKQLKFTSIILLSGLTLGGITACAEQDIAQLQNVEAEPSPVEQEAQTSLATSFKHPPHEAKPLTWLHAMSGNMSKAGLTKDLEAIAEAGLGGTMLFNVTQGIPLGKVKFNSTEHIDLIGHLAAESQRLGLSFGMHNCDGWTSSGGPWVTPEHSMKQITYNETIVDGGNVNIKLAQPATMLDYYQDIAVIAYPSLATEITDFTVKPKITASDANFDAQIVQNNNLTDYSSITPSNEQPGWLQFSYQQPYTLRLIDMLLHSGRGLNVSLHISDDGKNFKQVDNLTLRRPGKSTYAFDEAFAGYTAKHFRLVSNKVMHIKELRLSSTPSLDNFSGRTAASRSDYQEFEDIGKPSAELVIDPESVINLTASLNSEGQLITTLPAGKWTIMRFGYTSTGAVNIPASREGTGLEVDKFSKAAFKSHYDAYITNVIDKLKVVAPNALYSIEIDSYEVGAQNWTHNYEQLFQAQFGYDLVPFLPLFAGKFVESPTVAEAVLWDTRDLNNKLITENYYGYFRELAHQDGIKTYLEPYGSGPFNELDVASKADLPMGEFWLDNNNFRLSASASAAHIYNKPIVAAEAFTQFPRNNWLFHPAEGKADSDKSWALGVNQHVFHRFAHQANTHVMPGMTMNRWGAHMDRTQTWWTVAGKPWFKYVARGQQLLRTGHNVADVLWFLGDATPTTCPEKDPISAVLPLNINYDCLNSEVLQRLSVEDGKVTLPHGSQYKILVLNNHQTLTLKSLKKIYQLAQQGAVIVGTPVEQLAGRFVSEQQRQELKMMVDYIWSQPTTYNISTKAKTSHGHTGVFPTHEIAKTSKIDWQKIYNEQNWPLDLAIKNADKFYFTHRRSAQYDIYFIFNDSAQAQVFDARFNISGKIPELWDADTGNITQLGAFSDNGQITRVPLKLGAYDSVFVVFEKSSKAVTALKPEFVLSQPELDVVLDAQQQPKVIKTTHEAIEITGAWQVEFDKFYGLDKSFTFEQLIDWKLHPEQTIQDYSGTATYQKTIDVPAELLADNKQIFLDLGKVKVAANVYLNDKLAGSAWHAPYRIDISNFVQAGKNKLTIKVANLWVNRLLADRKLPDTSGFKIARWQNPITPMPQWYVDNQPAPKSERVTFVTQVFMDDNEPRQSSGLIGPVQLSVRSKTQL	4.051	2.446	2.480	0.13
1015 (protein, Bifidobacterium moukalabense) MITIIGLGVEHSERGCVTDNPHPRFSYAVRSDRSDVVVDGARLAVGDWTCEAGDQTAVAYDGKPLEPFTEYHVTLDVSTADGEHAHAETTFETGRLGQGWQGRWISDAGYDFVEKKVSPVPMMFRKPFTCDPTKSVRKARLYATAMGVYDFACDGKRIGDRYFAPGFTSYKTNLQYQTYDVTDMVGAGAVHTLLATVAGGWAVGSFVFTRKNRVSADRQALLAELRIEYTDGSVEVIGTDASWEVSESGPVRMADLYDGETYDAMMDPGADGSRCKDWRHASLENPRSRPRHIEADYGAGVVAHETLSPVSVARRAGGELVYDFGQNLAGVVRMRIANGRAGQTVVVRHAEILNPDGSLNTAFLRTAKATATYRCADADGFPEGVQEYGPRFTYMGFRYVSVRGVAEDDLRIEAVVLHSDLRPIGDFACSDERLNQLQHNIVWGAKSNLMDIPTDCPQRDERMGWTGDIAVFAPTACLNFDMSRFLEKWLRDVKAEQLKTGGIPNTVPVQGYGFPATMPEMAIDWWGDACVLVPWAVYRSSGDATVLHDMYDTMKRYVKACRFWAGLIGFGKSRYIWNTPSMLHFGDWVAPDVPKMSQWQKRAKWTATASLNNTSRTLARVAEVLGYDEDARAYDELADKVADAYCSVLTDGNGRLDNEFQTGYVLPLYLNMFPETVRGNAVDHLVKLIEDNDYCIGTGFPGTPYILFALADNGREDVAYRMLLNTACPSWLYEVGMGATTIWERWDGLDENGECPIGDDGTDLMISYNHYASGAVGAFLYQRVAGIEAIGAAYRSFRVRPVLGGGLTWAKAHVDTPYGRVGSAWSLDGGRFSITVEVPVGTTCELALPDGTTMQLSNGVHTATCEM	4.132	2.969	3.048	0.15
1063 (protein, listed as Parabacteroides distasonis) MNNKINDATMRIKQSIYIYAFAALLLGGCKSNNELTIPTNLRTEYLTEPIGLDTSSPRFTWEYSGNEEGFKASRYEVRIGTSPDDLRPYAEGMALKPHTRYYWNVTVWDGEGRPCATSETASFETAKFDPSDWSASWITDHKDKEFEPAPLFRKSFPVGKEVKDARVYVASAGYHELFINGERVGTNYLDPGYTHFDKRILYVTHDVTSLLKQGDNAVAAVLGNGWYNEQSVAVWNFHEARWRDRPRLLCELRITYTDGTTEVIGSDETWKTSTGAYTYNNIYSGDKFDARLEEAGWKTAHFDDSKWEAALPAQAPAPLLVAQQMPGIRITEEVRPVSMKRFSDQLYVYSFPKNMSGLCRLKVKGEAGTRITLKHGELLKKDGRLEQGNINVYYHPVKPDEVFQMDVFTLKGTGEEEIFMPSFSYHGFQYVEVESSRPVTLTEENLTGLFMHTDVRPSGSFACSNPLLNKIWEATMQAYRSNLHSIPTDCPQREKNGWTADAHIAIDLGLLGFDGITLYEKWMDDIIDNQREAGEISGIIPSSGWGYGEWPGPVWDAVMFIIPNALYDYYGESRSIERLYPTMLRYLDYLKTKEKDGYLPFGLGDWVYWKATTNNEYTSTAYYYLDYKLMARFASLLGKDAAPYQEKANTLKSLINQKFFNAETGVYAEGTQTAQALALYLGLVPEGKEQLVADKLREVVAGNNYFLDFGLLGSKTVPAMLTKYGYIEDAMKMITKTEAPSWGYWVETMGYSTLPETWTLSPKFADASLNHVFMGDVSAWMMNQLAGINHDDSAPGFRHIRITPHFVKELDWAKGEYHSVRGRIASEWKREGDKVMLTVTIPADCSADIVVGDQTETVSAGTHTFTYPA	4.201	2.240	2.473	0.17
1054 (protein, listed as Streptosporangium roseum) MEQAVAAALAVTDLRMDGRTEPLGLGESAPRFSWRLAAPGRGRAQSAYRIVVGRECDPLAEGAEVLWDTGEVGSSRTFDIAYEGAELRPRTRYQWRARAADEAGTWGDWSPAHWFETGLGDVTGWTADWIGTPAVPGSQRLPSLENVPRIWAAGPLGPSEARTGGFRTRFTVPGGARPLSAWLVIGGALDPQVHLNGMPVAGEVRDGAFVADAGDLIDSGENVLALRAGAVDGLPGGLCVRLEVVLEGRPALPQLVPVAGESAVTVTSDGRWRAAGEPAPGFEQPGFDDTGWSLAEEVGLHGDPPRGREPVADRPSPYLRREFDVPRPVSRARLYATALGVYELHLNGMRVSADHLAPGWTDYRHRVTYQTYDVTALVAEGGNALGAVLADGWYAGNISWFGSFQYGRRLALRAELEIVHDDGTTTRLRTDSDWRAGSGAIRYADLQNGERQDLAAEPVGWTACGFDDSGWLPAVPVSPPAGRPAAAVAPPVRVHEELAPRAVWESSPGVWIADFGQNVVGWVRLTARAGRDRPVVLRHAEVLDHEGALHLANLRSARATDEFLPRGGAGAETFEPRFTFHGFRYVEVSGLREPLTSDAIRARVAYAAMEPAGEFACSDERLNRLQGNIVRGQRGNFLSIPTDCPQRDERLGWTGDIWAFAPTALFNYDARAFLHSWLTDVVDAQAEDGAVTHVVPDVLSGRGLSPNPREAGSPGWGDAIVMLPWALYRLCGDADAVARYYGPMRRWLAYLDSRSTDGIFPDEGFGDWLSIGADTPKRLVGTAIFALSARQLAELAAALGRADDERACLEVYARVRRAFRAAFVQGPGVVESGTQTAYVLAITAGLLEEAELPRAAARLVRDIEARGGHLSTGFLGTPFLLDALTRSGHLGTAYRLLLQESFPSWLYPVVHGDATTMWERWDGWSHHRGLQDPGMNSFNHYAYGAVGAWMYETIGGLAPASPGYRAIVVRPRPGGELTWARTAYRTRHGRVEIAWRREGGDFTLEVRVPPNTRAEVWVPGGPAGVTESGRPAAESPGVALDRVVDGHAVYEVGSGSYAFHV	4.348	2.160	2.487	0.17
